Read-outs that look alike come from different tables or passages of the source.
Experiments:
[1] = molecular target: T1, human transferrin receptor 1 (TfR1), full length, expressed on cells (human, UniProt P02786 1-760); assay: FACS on Ba/F3 cells, Fab supernatant
T1 construct: also called human TfR1; huTfR

[2] = molecular target: T2, cynomolgus monkey transferrin receptor 1 (TfR1), full length, expressed on cells (cynomolgus monkey, UniProt Q5RDH6 1-760 (Pongo abelii entry)); assay: FACS on Ba/F3 cells, Fab supernatant
T2 construct: also called cyno TfR1; cyTfR

[3] = molecular target: T1, human transferrin receptor 1 (TfR1), …; assay: FACS on Ba/F3 cells, Fab supernatant; remark: listed apart in the source
[4] = molecular target: T2, cynomolgus monkey transferrin receptor …; assay: FACS on Ba/F3 cells, Fab supernatant; remark: listed apart in the source
[5] = molecular target: T3, recombinant human TfR1 extracellular domain, His-tagged (human, UniProt P02786 89-760); assay: SPR, TfR1 ECD-His captured, Fab injected, 1:1 fit
T3 construct: also called Human TfR1 ECD; human TfR1 ECD-His

[6] = molecular target: T4, recombinant cynomolgus monkey TfR1 extracellular domain, His-tagged (cynomolgus monkey, UniProt Q5RDH6 87-760 (Pongo abelii entry)); assay: SPR, TfR1 ECD-His captured, Fab injected, 1:1 fit
T4 construct: also called Cyno TfR1 ECD; cyno TfR1 ECD-His

[7] = molecular target: T1, human transferrin receptor 1 (TfR1), …; assay: FACS on Ba/F3 cells, Fab supernatant; remark: listed apart in the source
[8] = molecular target: T2, cynomolgus monkey transferrin receptor …; assay: FACS on Ba/F3 cells, Fab supernatant; remark: listed apart in the source

B1: TfRANTIBODY-A HC-H3(HA) hIgG1Fab′(1C)/LC-L0 hKappa (Fab, V domains shown)
VH: QSLVESGGGLVQPGGSLRLSCKASGIDFSSSGYMHWVRQAPGKGLEWVGAIYTYSSNTYYASWAKGRFTISKDSKNSVYLQMNSLKTEDTAVYYCARGTYGYTGYTYTMGYFSLWGPGTLVTVSS
VL: DIQMTQSPSTLSASVGDRVTITCQASQNINSYLAWYQQKPGKAPKLLIYRASSLESGVPSRFSGSGSGTEFTLTISSLQPDDFATYYCQSYYYSGSSNYNAFGGGTKVEIKR
notes: also called ANTIBODY-A H3(HA)/L0; H3C(HA)/L0
EC50 [1]: 16.8 nM
EC50 [2]: ~30 nM

B2: TfRANTIBODY-A HC-H3(SR) hIgG1Fab′(1C)/LC-L0 hKappa (Fab, V domains shown)
VH: QSLVESGGGLVQPGGSLRLSCKASGIDFSSSGYMSWVRQAPGKGLEWVGRIYTYSSNTYYASWAKGRFTISKDSKNSVYLQMNSLKTEDTAVYYCARGTYGYTGYTYTMGYFSLWGPGTLVTVSS
VL: DIQMTQSPSTLSASVGDRVTITCQASQNINSYLAWYQQKPGKAPKLLIYRASSLESGVPSRFSGSGSGTEFTLTISSLQPDDFATYYCQSYYYSGSSNYNAFGGGTKVEIKR
notes: also called ANTIBODY-A H3(SR)/L0
EC50 [1]: > 290 nM
binding result [2]: no binding

B3: TfRANTIBODY-A HC-H3(SY) hIgG1Fab′(1C)/LC-L0 hKappa (Fab, V domains shown)
VH: QSLVESGGGLVQPGGSLRLSCKASGIDFSSSGYMSWVRQAPGKGLEWVGYIYTYSSNTYYASWAKGRFTISKDSKNSVYLQMNSLKTEDTAVYYCARGTYGYTGYTYTMGYFSLWGPGTLVTVSS
VL: DIQMTQSPSTLSASVGDRVTITCQASQNINSYLAWYQQKPGKAPKLLIYRASSLESGVPSRFSGSGSGTEFTLTISSLQPDDFATYYCQSYYYSGSSNYNAFGGGTKVEIKR
notes: also called ANTIBODY-A H3(SY)/L0
EC50 [1]: > 125 nM
binding result [2]: no binding

B4: TfRANTIBODY-A HC-H3(SV) hIgG1Fab′(1C)/LC-L0 hKappa (Fab, V domains shown)
VH: QSLVESGGGLVQPGGSLRLSCKASGIDFSSSGYMSWVRQAPGKGLEWVGVIYTYSSNTYYASWAKGRFTISKDSKNSVYLQMNSLKTEDTAVYYCARGTYGYTGYTYTMGYFSLWGPGTLVTVSS
VL: DIQMTQSPSTLSASVGDRVTITCQASQNINSYLAWYQQKPGKAPKLLIYRASSLESGVPSRFSGSGSGTEFTLTISSLQPDDFATYYCQSYYYSGSSNYNAFGGGTKVEIKR
notes: also called ANTIBODY-A H3(SV)/L0
EC50 [1]: > 150 nM
binding result [2]: no binding

B5: TfRANTIBODY-B HC-H1(HA) hIgG1Fab′(1C/LC-L2 hKappa (Fab, V domains shown)
VH: QSLVESGGGVVQPGRSLRLSCAASGFSFSNSYWIHWVRQAPGKGLEWVAAINTDADSTNYADSVKGRFTISKDNSKNTVYLQMNSLRAEDTAVYYCARQNNVFDPGYNLWGQGTLVTVSS
VL: ELVLTQSPSTLSASVGDRVTITCRASQNIGSNLAWYQQKPGKAPKLLIYDASKLESGVPSRFSGSGSGTEFTLTISSLQPDDFATYYCQCTVRGGAYGNAFGGGTKVEIKR
notes: also called ANTIBODY-B H1(HA)/L2
EC50 [1]: 18.2 nM
EC50 [2]: 7.1 nM

B6: TfR1 ANTIBODY-B HC-H2 hIgG1 Fab′(1C)/LC-L2 hKappa (Fab, V domains shown)
VH: QSLVESGGGVVQPGRSLRLSCKASGFSFSNSYWIAWVRQAPGKGLEWVAAINTDADSTNYADSVKGRFTISKDSSTTVYLQMNSLRAEDTAVYYCARQNNVFDPGYNLWGQGTLVTVSS
VL: ELVLTQSPSTLSASVGDRVTITCRASQNIGSNLAWYQQKPGKAPKLLIYDASKLESGVPSRFSGSGSGTEFTLTISSLQPDDFATYYCQCTVRGGAYGNAFGGGTKVEIKR
notes: also called ANTIBODY-B H2/L2
EC50 [3]: 10.2 nM
EC50 [4]: 7.7 nM
Kd [5]: 39.4 nM
koff [5]: 0.00328 s⁻¹
kon [5]: 83200 M⁻¹ s⁻¹
Kd [6]: 8.7 nM
koff [6]: 0.00113 s⁻¹
kon [6]: 129000 M⁻¹ s⁻¹

B7: TfR1 ANTIBODY-B HC-H1 hIgG1 Fab′(1C)/LC-L2 hKappa (Fab, V domains shown)
VH: QSLVESGGGVVQPGRSLRLSCAASGFSFSNSYWIAWVRQAPGKGLEWVAAINTDADSTNYADSVKGRFTISKDNSKNTVYLQMNSLRAEDTAVYYCARQNNVFDPGYNLWGQGTLVTVSS
VL: ELVLTQSPSTLSASVGDRVTITCRASQNIGSNLAWYQQKPGKAPKLLIYDASKLESGVPSRFSGSGSGTEFTLTISSLQPDDFATYYCQCTVRGGAYGNAFGGGTKVEIKR
notes: also called ANTIBODY-B H1/L2
EC50 [3]: 9.6 nM
EC50 [4]: 4.9 nM
Kd [5]: 47.8 nM
koff [5]: 0.00453 s⁻¹
kon [5]: 94700 M⁻¹ s⁻¹
Kd [6]: 12 nM
koff [6]: 0.00105 s⁻¹
kon [6]: 88300 M⁻¹ s⁻¹

B8: TfR1 ANTIBODY-B HC-H0 hIgG1 Fab′(1C)/LC-L2 hKappa (Fab, V domains shown)
VH: QVQLVESGGGVVQPGRSLRLSCAASGFSFSNSYWIAWVRQAPGKGLEWVAAINTDADSTNYADSVKGRFTISRDNSKNTLYLQMNSLRAEDTAVYYCARQNNVFDPGYNLWGQGTLVTVSS
VL: ELVLTQSPSTLSASVGDRVTITCRASQNIGSNLAWYQQKPGKAPKLLIYDASKLESGVPSRFSGSGSGTEFTLTISSLQPDDFATYYCQCTVRGGAYGNAFGGGTKVEIKR
notes: also called ANTIBODY-B H0/L2
EC50 [3]: 168 nM
EC50 [4]: 44.5 nM

B9: TfR1 ANTIBODY-B HC-H0C hIgG1 Fab′(1C)/LC-L2 hKappa (Fab, V domains shown)
VH: QVQLVESGGGVVQPGRSLRLSCAASGFSFSNSYWICWVRQAPGKGLEWVGCINTDADSTNYADSVKGRFTISRDNSKNTLYLQMNSLRAEDTAVYYCARQNNVFDPGYNLWGQGTLVTVSS
VL: ELVLTQSPSTLSASVGDRVTITCRASQNIGSNLAWYQQKPGKAPKLLIYDASKLESGVPSRFSGSGSGTEFTLTISSLQPDDFATYYCQCTVRGGAYGNAFGGGTKVEIKR
notes: also called ANTIBODY-B H0C/L2
EC50 [3]: 9.3 nM
EC50 [4]: 5.5 nM
Kd [5]: 14.1 nM
koff [5]: 0.00343 s⁻¹
kon [5]: 244000 M⁻¹ s⁻¹
Kd [6]: 6.5 nM
koff [6]: 0.00136 s⁻¹
kon [6]: 210000 M⁻¹ s⁻¹

B10: TfRANTIBODY-B HC-H3C/LC-L2 (C90V) hIgG1Fab′(1C) (Fab, V domains shown)
VH: QSLVESGGGVVQPGRSLRLSCAASGFSFSNSYWICWVRQAPGKGLEWVGCINTDADSTNYASWARGRFTISKDNSKNTLYLQMNSLRAEDTAVYYCARQNNVFDPGYNLWGQGTLVTVSS
VL: ELVLTQSPSTLSASVGDRVTITCRASQNIGSNLAWYQQKPGKAPKLLIYDASKLESGVPSRFSGSGSGTEFTLTISSLQPDDFATYYCQVTVRGGAYGNAFGGGTKVEIKR
notes: also called ANTIBODY-B H3C/L2(C90V)
EC50 [7]: 7.7 nM
EC50 [8]: 3.2 nM

B11: TfRANTIBODY-B HC-H1(SY) hIgG1Fab′(1C)/LC-L2 hKappa (Fab, V domains shown)
VH: QSLVESGGGVVQPGRSLRLSCAASGFSFSNSYWISWVRQAPGKGLEWVAYINTDADSTNYADSVKGRFTISKDNSKNTVYLQMNSLRAEDTAVYYCARQNNVFDPGYNLWGQGTLVTVSS
VL: ELVLTQSPSTLSASVGDRVTITCRASQNIGSNLAWYQQKPGKAPKLLIYDASKLESGVPSRFSGSGSGTEFTLTISSLQPDDFATYYCQCTVRGGAYGNAFGGGTKVEIKR
notes: also called ANTIBODY-B H1(SY)/L2
EC50 [1]: 113 nM
EC50 [2]: > 55 nM

B12: TfRANTIBODY-B HC-H1(SR) hIgG1Fab′(1C)/LC-L2 hKappa (Fab, V domains shown)
VH: QSLVESGGGVVQPGRSLRLSCAASGFSFSNSYWISWVRQAPGKGLEWVARINTDADSTNYADSVKGRFTISKDNSKNTVYLQMNSLRAEDTAVYYCARQNNVFDPGYNLWGQGTLVTVSS
VL: ELVLTQSPSTLSASVGDRVTITCRASQNIGSNLAWYQQKPGKAPKLLIYDASKLESGVPSRFSGSGSGTEFTLTISSLQPDDFATYYCQCTVRGGAYGNAFGGGTKVEIKR
notes: also called ANTIBODY-B H1(SR)/L2
binding result [1]: no binding
binding result [2]: no binding

B13: TfRANTIBODY-B HC-H3C/LC-L2 (C90T) hIgG1Fab′(1C) (Fab, V domains shown)
VH: QSLVESGGGVVQPGRSLRLSCAASGFSFSNSYWICWVRQAPGKGLEWVGCINTDADSTNYASWARGRFTISKDNSKNTLYLQMNSLRAEDTAVYYCARQNNVFDPGYNLWGQGTLVTVSS
VL: ELVLTQSPSTLSASVGDRVTITCRASQNIGSNLAWYQQKPGKAPKLLIYDASKLESGVPSRFSGSGSGTEFTLTISSLQPDDFATYYCQTTVRGGAYGNAFGGGTKVEIKR
notes: also called ANTIBODY-B H3C/L2(C90T)
EC50 [7]: 15.9 nM
EC50 [8]: 6.3 nM

B14: TfR1 ANTIBODY-B HC-H3 hIgG1 Fab′(1C)/LC-L2 hKappa (Fab, V domains shown)
VH: QSLVESGGGVVQPGRSLRLSCAASGFSFSNSYWIAWVRQAPGKGLEWVAAINTDADSTNYASWARGRFTISKDNSKNTLYLQMNSLRAEDTAVYYCARQNNVFDPGYNLWGQGTLVTVSS
VL: ELVLTQSPSTLSASVGDRVTITCRASQNIGSNLAWYQQKPGKAPKLLIYDASKLESGVPSRFSGSGSGTEFTLTISSLQPDDFATYYCQCTVRGGAYGNAFGGGTKVEIKR
notes: also called ANTIBODY-B H3/L2
EC50 [3]: 15.7 nM
EC50 [4]: 5.7 nM
Kd [5]: 65 nM
koff [5]: 0.00595 s⁻¹
kon [5]: 91500 M⁻¹ s⁻¹
Kd [6]: 12 nM
koff [6]: 0.00172 s⁻¹
kon [6]: 143000 M⁻¹ s⁻¹

B15: TfRANTIBODY-B HC-H1(SV) hIgG1Fab′(1C)/LC-L2 hKappa (Fab, V domains shown)
VH: QSLVESGGGVVQPGRSLRLSCAASGFSFSNSYWISWVRQAPGKGLEWVAVINTDADSTNYADSVKGRFTISKDNSKNTVYLQMNSLRAEDTAVYYCARQNNVFDPGYNLWGQGTLVTVSS
VL: ELVLTQSPSTLSASVGDRVTITCRASQNIGSNLAWYQQKPGKAPKLLIYDASKLESGVPSRFSGSGSGTEFTLTISSLQPDDFATYYCQCTVRGGAYGNAFGGGTKVEIKR
notes: also called ANTIBODY-B H1(SV)/L2
EC50 [1]: 98.6 nM
EC50 [2]: 30 nM
